Earlier results in publication PMC4987277.

Target: C3d C3d (Homo sapiens) (UniProt P01024)
Sequence (P01024 1002-1303): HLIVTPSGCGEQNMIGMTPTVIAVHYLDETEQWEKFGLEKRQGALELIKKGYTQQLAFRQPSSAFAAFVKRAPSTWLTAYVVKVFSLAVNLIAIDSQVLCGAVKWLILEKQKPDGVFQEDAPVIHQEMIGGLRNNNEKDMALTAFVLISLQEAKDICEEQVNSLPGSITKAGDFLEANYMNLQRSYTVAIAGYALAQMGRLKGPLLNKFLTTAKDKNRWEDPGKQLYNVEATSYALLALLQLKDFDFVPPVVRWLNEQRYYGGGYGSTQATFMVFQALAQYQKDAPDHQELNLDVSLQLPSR

CR2, sequence (P20023 21-971): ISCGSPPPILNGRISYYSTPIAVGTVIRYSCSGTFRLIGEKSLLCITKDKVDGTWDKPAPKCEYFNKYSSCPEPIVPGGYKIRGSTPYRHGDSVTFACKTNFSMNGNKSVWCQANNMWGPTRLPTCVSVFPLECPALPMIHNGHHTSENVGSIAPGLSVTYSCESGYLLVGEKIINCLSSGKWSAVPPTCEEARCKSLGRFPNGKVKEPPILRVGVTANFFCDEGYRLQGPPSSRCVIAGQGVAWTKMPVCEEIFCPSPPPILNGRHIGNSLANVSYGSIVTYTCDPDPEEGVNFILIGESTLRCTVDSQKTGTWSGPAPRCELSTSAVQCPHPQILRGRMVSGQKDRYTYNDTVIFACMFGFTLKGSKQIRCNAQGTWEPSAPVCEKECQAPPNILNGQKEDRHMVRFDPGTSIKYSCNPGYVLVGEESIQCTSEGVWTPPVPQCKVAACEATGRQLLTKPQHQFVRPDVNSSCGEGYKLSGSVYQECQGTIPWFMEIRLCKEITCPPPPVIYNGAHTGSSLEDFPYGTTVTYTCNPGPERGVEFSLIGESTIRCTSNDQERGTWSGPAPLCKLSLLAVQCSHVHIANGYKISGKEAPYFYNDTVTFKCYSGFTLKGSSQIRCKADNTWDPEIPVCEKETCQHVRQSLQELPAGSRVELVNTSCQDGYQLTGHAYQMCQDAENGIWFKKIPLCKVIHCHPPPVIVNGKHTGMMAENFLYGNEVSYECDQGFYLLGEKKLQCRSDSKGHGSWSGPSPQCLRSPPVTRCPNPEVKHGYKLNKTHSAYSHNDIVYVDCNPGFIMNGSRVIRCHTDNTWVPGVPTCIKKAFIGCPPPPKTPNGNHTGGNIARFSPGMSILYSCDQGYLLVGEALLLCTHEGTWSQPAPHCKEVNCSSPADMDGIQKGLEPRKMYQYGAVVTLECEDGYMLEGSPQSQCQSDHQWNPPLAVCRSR

In the case of CR2 (from UniProt P20023), the Kd is given as 500 nM.
